Test: yeast display, Sf9 membrane polyspecificity reagent, FACS + sequencing; frameworks hold sequencing errors
Method in brief: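 Genes from sorted yeast were amplified by colony PCR, read by MiSeq 2 × 250 sequencing and filtered on CDR length. These cells carried a synthetic nanobody library in Saccharomyces cerevisiae BJ5465 and were sorted by FACS into low and high (top ~1%) gates on anti-HA and streptavidin fluorescence. Polyreactivity is labelled according to the gate of origin.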

Row | Sequence | polyreactivity (PSR sort gate)
1 | QVQLVESGGGLVQAGGSLRLSCAASGRIFPAYVMGWYRQSPGKERELVATIDNGGGTYYADSVKGRFTISRDNAKNTVYLQMNSLKPEDTAVYYCARDRHVRWGLKMDYWGQGTQVTVSS | low polyreactivity
2 | QVQLVESGGGLVQAGGSLRLSCAASGRIFPDNTMGWYRQAPGKERELVAVITYSGGSTYYADSVKGRFTISRDNAKNTVYLQMNSLKPEDTAVYYCARDDATAGDYWGQGTQVTVSS | low polyreactivity
3 | QVQLVESGGGLVQAGGSLRLSCAASGRIFPEYAMGWYRQAPGKERELVAAISSGDNTTYADSVKGRFTISRDNAKNTVYLQMNSLIPEDTAVYYCNAGSCTTGQGGPIIEYGYWGQGTQVTVSS | low polyreactivity
4 | QVQLVESGGGLVQAGGSLRLSCAASGRIFPFYAMGWYRQAPGKERELVAAITQSGGSTYYADSVKGRFTISRDNAKNTVYLQMNSLKPEDTAVYYCAADYGSFLYGYPTYDYWGQGTQVTVSS | low polyreactivity
5 | QVQLVESGGGLVQAGGSLRLSCAASGRIFPFYDMGWYRQAPGKEREFVARITLSGGSTYYADSVMGRFTISRDNAKNTVNLQMNSLKPEDTSVYYCSADRTSWSVLDFDYWGQGTQVTVSS | low polyreactivity
6 | QVQLVESGGGLVQAGGSLRLSCAASGRIFPGNAMGWYRQAPGKEREFVAAINTRGGITYYADSVKGRFTISRDNAKNTVYLQMNSLKPEDTAVYYCNKRWSIRSGYPYTYGIYDYWGQGTQVTVSS | low polyreactivity
7 | QVQLVESGGGLVQAGGSLRLSCAASGRIFPGYAMGWYRQAPGKERELVAAISWIGGDTYYADSVKGRFTISRDNAKNTVYLQMNSLKPEDTAVYYCAARYGRHRVSWYATWRYGYWGQGTQVTVSS | low polyreactivity
8 | QVQLVESGGGLVQAGGSLRLSCAASGRIFPKNAMGWYRQAPGTERELVAAISSGGRTKYADSVKGRFTISRDNAKNTVYLQMNSLKPEDTAVYYCAAYFVSKTGGYYYWGQGTQVSVSS | high polyreactivity
9 | QVQLVESGGGLVQAGGSLRLSCAASGRIFPLYAMGWYRQAPGKERELVAAITSSGGSTYYPDSVKGRFTISRDNAKNTVYLQMNSLKPEDTAVYYCAADYSVYWLDYGYWGQGTQVTVSS | low polyreactivity
10 | QVQLVESGGGLVQAGGSLRLSCAASGRIFPPNAMGWYRQGPGKERELVAGITSSGDTTYYADSVKGRFTISRDHAKKTVNLQMHSLKPEDTAVNYCAKDDVYADDRSALFDYWGQGTQVTVSS | low polyreactivity
11 | QVQLVESGGGLVQAGGSLRLSCAASGRIFPRYAMAWYRQAPGKERELVARITRRGGITYYADSVKGRFTISRDNAKNTVYLQMNSLKPEDTAVYYCNVDYYRGGDFSYGYDYWGQGTQVTVSS | high polyreactivity
12 | QVQLVESGGGLVQAGGSLRLSCAASGRIFPRYAMGWYRQAPGKERELFATISSGGSTYYADSVKGRFTISRDNAKNTVYLQMNSLKPEDTAVYYCAARKRPYTVINGMDYWGQGTQVTVSS | low polyreactivity
13 | QVQLVESGGGLVQAGGSLRLSCAASGRIFPRYAMGWYRQAPGKERELVAGINSGGRTNYADSVKGRFTISRDNAKNTVYLQMNSLKPEDTAVYYCAKRTYPYGTYRSVWGYDYWGQGTQVTVSS | low polyreactivity
14 | QVQLVESGGGLVQAGGSLRLSCAASGRIFPRYAMGWYRQAPGKERELVATISSGGSTYYADSVKGRFTISRDNAKNTVYLQMNSLKPEDTAVYYCAARKRPYTVINGMDYCGQGTQVTVSS | low polyreactivity
15 | QVQLVESGGGLVQAGGSLRLSCAASGRIFPSYAMGRYRQAPGKERELVAAISRSGGRTYYADSVKGRFTISRDNAKNTVYFQMNSLKPEDTAVYYCARYGPYQSSYHYDYWGQGSQVTVSS | high polyreactivity
16 | QVQLVESGGGLVQAGGSLRLSCAASGRIFPSYAMGWYIQAPGKERELVAAITSSDSTYYADSVKGRFTISRDNAKNTVYLQMNSLKPEDTAVYYCAAAYSYSGWWWFGYWGQGTQVTVSS | high polyreactivity
17 | QVQLVESGGGLVQAGGSLRLSCAASGRIFPSYAMGWYRQAPGKERELVAAISSSGGRTYYADSVKGRFTISRDNAKNTVYLQRNSLKPEDSAVYYCAARWVQYGVRYDYWGHGTQVTVSS | high polyreactivity
18 | QVQLVESGGGLVQAGGSLRLSCAASGRIFPSYAMVWYIQAPGKEREMVATISYRGTSTYYADSVKGRFTISRDNAKNTVYLQMNSLKPEDTGVYYCNKATRHHFYYWGQGTQVTVSS | high polyreactivity
19 | QVQLVESGGGLVQAGGSLRLSCAASGRIFPTNAMGWYRQAPGKERELVASITRSGSTYYADSVTGRFTISRDNAKNTVYLQMNSLKPEDTAVYYCAAYAYIFLDWGGYPYYLYEYDYWGQGTQVTVSS | low polyreactivity
20 | QVQLVESGGGLVQAGGSLRLSCAASGRIFPVNDMGWYRQAPGKERELVASITYSGGSTYYADSVKGRFTISRDNAKNTVYLQMNSLKPEDTAVYYCAADDGSQYYFDSPHEYDYWGQGTQVTVSS | low polyreactivity
21 | QVQLVESGGGLVQAGGSLRLSCAASGRIFPVYAMGWYRQAPGKERELVAAITSGVSTNYADSVKGRFTISRDNAKYTVYLQMNSLKPEDTAVYYCNKDYTTYPYYEYGYWGQGTQVTVSS | low polyreactivity
22 | QVQLVESGGGLVQAGGSLRLSCAASGRIFPYNAMGWYIQGPGKERELVAAISGGGSSTYYADSVKGRFTISRDNAKNTVYLQMNSLKPEVTAVYYCAAQAWWDGEYDYWGQGTKVTVSS | high polyreactivity

Row | Sequence | polyreactivity (PSR sort gate)
23 | QVQLVESGGGLVQAGGSLRLSCAASGRIFPYNAMGWYRQAPGKERELVAAIDWRDNTYYADSVKGRFSISRDNAKNTVYLQMNSLKPEDTAVYYCNVDYTDYFLNKYDYWGQGTQVTVSS | low polyreactivity
24 | QVQLVESGGGLVQAGGSLRLSCAASGRIFPYNVMGWYRQAPGKERELVAAISSGGTTDYADSVKGRFTISRDNAKNTVYLQMNSLKPEDTAVYYCAATYVYWTWGYDYWGQGTQVTVSS | low polyreactivity
25 | QVQLVESGGGLVQAGGSLRLSCAASGRIFPYYAMGWYRQAPGKERELVAAISRIGGRTYYADSVKGRFTISRDNAKNTVYLQMNSLKPEDTAVYYCAAGYGGTFNCGQGTQVTVSS | high polyreactivity
26 | QVQLVESGGGLVQAGGSLRLSCAASGRIFPYYTMGWYREAPGKERELVATITTGGSTNYADSVKGRFTISRDNAENTVYLQMNSLKPEDTAVYYCNKDGVVEVRFTGRQEYDYWGQGTQVTVSS | low polyreactivity
27 | QVQLVESGGGLVQAGGSLRLSCAASGRIFQANAMGWYRQAPGKERELVASISSGGSTNYADSVKGRFTISRDNAKNTVYLQMNSLKPEDTAVYYCAARHPSSAYWVGYYWYDYWGQGTQVTVSS | low polyreactivity
28 | QVQLVESGGGLVQAGGSLRLSCAASGRIFQDYARGWYRQAPGKERELVPSIRWSSTSTYYADSVKGRFTISRDNAKNTVYLQMNSLKPEDTAVYYCNARYPYYTRTRDGRMYYWGQGTQVTVSS | low polyreactivity
29 | QVQLVESGGGLVQAGGSLRLSCAASGRIFQFNVMGWYRQAPGKERELVAAISRGGGITDYADSVKGRFTISRDNAKNTVYLQMNSLKPEDTAVYYCAAVLPARGYYWGQGTQVTVSS | high polyreactivity
30 | QVQLVESGGGLVQAGGSLRLSCAASGRIFQGYAMGWYRQAPGKERELLAAITVRCGTTYYADSVKGRFTISRDNAKNTVYLQMNSLKPEDTAVYYCNAAKLIHGYQSVYPGSNSRYYYWGQGTQVTVSS | low polyreactivity
31 | QVQLVESGGGLVQAGGSLRLSCAASGRIFQGYAMGWYRQAPGKERELVAAIRTGGSTNYADSVKGRFTISRDNAKNTVYLQMNSLKPEDTAVYYCNAVGQLYFYFPRGDYWGQGTQVTVSS | low polyreactivity
32 | QVQLVESGGGLVQAGGSLRLSCAASGRIFQQYAMGWSRKAPGKERELVAAISRNGGSTYYADSVKGRFTISRDNAKNTVYLQMNRLKTEDTAVYYCNARRNAASTLRKDYGYWGQGTQVSVSS | high polyreactivity
33 | QVQLVESGGGLVQAGGSLRLSCAASGRIFQRYAMGWYRQAPGKERELVAVITKRGGNTYYADSVKGRFTISRDNAKNTVYLQMNSLKPEDTAVYYCANRSGRSTGDYWGQGTQVTVSS | high polyreactivity
34 | QVQLVESGGGLVQAGGSLRLSCAASGRIFQRYTMGWYRQAPGKEWEFVAAITYSGGSTHYADSVKGRFTISRDNAKNTVYLQMNSLKPEDTAVYYCATDYIRYRWYVFYGWLWRYDYWGQGTQVTVSS | low polyreactivity
35 | QVQLVESGGGLVQAGGSLRLSCAASGRIFQYYAMGWYRQAPGKERELVAAISSRGGSTTYADSVKGRFTISRDNAKNTVYLQMNSLKPEDTAVYYCARDWYYYPQYRQRYYYWGQGTQVTVSS | high polyreactivity
36 | QVQLVESGGGLVQAGGSLRLSCAASGRIFRAIAMGLYRQAPGKERELVAAISFSGGGTYYADSVKGRFTISRDNAKYTVYLQMNSLKPEDTAVYYCAADQFWGGEEYDYWGQGTQVTVSS | low polyreactivity
37 | QVQLVESGGGLVQAGGSLRLSCAASGRIFRAYAMGWYRQAPGKERELVASITGSGGSTYYADSVKGRFTISRDNAKNTVYLQMNSLKPEDTAVYYCAVASYRVWGVGTRFYYWGQGTQVTVSS | high polyreactivity
38 | QVQLVESGGGLVQAGGSLRLSCAASGRIFRAYARGWYRQAPGKERELVAAITRGGGTYYADSVKGRFTISRDNAKNSVYLQMNSLKPEDTAVYYCAAGRQRGPGYYFTFDYWGQGTQVTVSS | high polyreactivity
39 | QVQLVESGGGLVQAGGSLRLSCAASGRIFRAYVMGWYRQAPGKERELVATIDSGTSTYYADSVKGRFTISRDNAKNTVYLQMNSLKPEDTAVYYCAVPSHSRVPESFDYWGQGTQVTVSS | low polyreactivity
40 | QVQLVESGGGLVQAGGSLRLSCAASGRIFRDYAMGWYRQAPGKERELVAAISLSGGSTYYADSVKGRFTISRDIAKNTVYLQVNSLKPEDTAVYYCAAKYYYGGNGYWGQGTQVNVSS | low polyreactivity
41 | QVQLVESGGGLVQAGGSLRLSCAASGRIFRDYTMGWYRTAPGKERELVAAITSGGSTYYADSVKGRFTISRDTAKNTVYLQMNSLKPEDTAVYYCNADGYVPGVDYWGLGTQVTVSS | low polyreactivity
42 | QVQLVESGGGLVQAGGSLRLSCAASGRIFREYAMGWYRQAPGKERELVAAISSGASTYADSVKGRFTISRDNAKNTVYLQMNSLKPEDTAVYYCAKDIKLGPVGHSKYHRYDYWGQGTQVTVSS | low polyreactivity
43 | QVQLVESGGGLVQAGGSLRLSCAASGRIFRFNAMGWYRQAPGKERELVAAITGSGGTTFYADSVKGRFTISRDNAKNTVYLQMNSLKPEDTAVYYCARQRTVKKYYYWGQGTQVTVSS | high polyreactivity
